Consider 1 molecule from paper PMC4355236.

The data set addresses T1, POT1 (Homo sapiens, UniProt Q9NUX5 1-634).
T1 sequence: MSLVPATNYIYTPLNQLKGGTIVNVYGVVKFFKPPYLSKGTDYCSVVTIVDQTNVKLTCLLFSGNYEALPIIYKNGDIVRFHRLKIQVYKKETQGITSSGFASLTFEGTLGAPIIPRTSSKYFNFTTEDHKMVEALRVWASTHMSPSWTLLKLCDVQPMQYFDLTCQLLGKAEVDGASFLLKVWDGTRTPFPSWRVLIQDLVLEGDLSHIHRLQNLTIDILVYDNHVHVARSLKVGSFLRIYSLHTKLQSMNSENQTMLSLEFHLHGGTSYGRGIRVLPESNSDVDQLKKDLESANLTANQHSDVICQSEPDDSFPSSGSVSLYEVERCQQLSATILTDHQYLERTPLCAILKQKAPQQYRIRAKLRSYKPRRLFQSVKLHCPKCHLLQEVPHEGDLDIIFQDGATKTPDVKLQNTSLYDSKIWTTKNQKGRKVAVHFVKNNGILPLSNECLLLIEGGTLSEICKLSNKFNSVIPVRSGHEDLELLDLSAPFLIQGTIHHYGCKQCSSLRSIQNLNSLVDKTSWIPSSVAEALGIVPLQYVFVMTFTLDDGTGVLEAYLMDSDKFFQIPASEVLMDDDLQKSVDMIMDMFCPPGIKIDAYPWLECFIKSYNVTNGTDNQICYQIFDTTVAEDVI
Kind of data set: EMSA. For orientation: In EMSA bound probe runs differently from free probe, usually more slowly.

One may read the Kd as the free concentration of one partner at which half of the binding sites on the other are occupied at equilibrium, for simple one-to-one binding. Consider TTAGGGTTAGCGTTAGGGTT (ssDNA) [primer a5TT], for which the Kd amounted to 50 nM. That is a double-digit nanomolar value.
